The text below walks through data of patent publication US7572600B2, “Enzymatic activities in chemokine-mediated inflammation” (Chemocentryx, Inc., priority 2004, dated 2009).

Where two headings read alike, the source gives them in different places. Where no end group is shown, it is not given here.

The target of assay [1] is T1, FPRL1 (Homo sapiens, UniProt P25090).
T1 sequence (P25090 1-351): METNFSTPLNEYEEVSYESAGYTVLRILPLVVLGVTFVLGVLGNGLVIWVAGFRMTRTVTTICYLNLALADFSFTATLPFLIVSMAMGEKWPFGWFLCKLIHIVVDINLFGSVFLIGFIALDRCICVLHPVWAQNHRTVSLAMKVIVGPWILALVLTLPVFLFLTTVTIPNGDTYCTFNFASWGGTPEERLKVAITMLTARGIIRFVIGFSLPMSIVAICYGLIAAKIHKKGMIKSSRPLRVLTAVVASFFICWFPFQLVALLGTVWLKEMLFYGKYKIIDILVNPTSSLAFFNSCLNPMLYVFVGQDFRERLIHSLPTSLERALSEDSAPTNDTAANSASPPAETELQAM
In words: Receptor signaling (calcium mobilization) in L1.2-FPRL1 cells. Format: cell-based. Also noted: expressed in transfected cells. Particulars: for calcium mobilization in the FPRL1 transfectant: L1.2 cells stably expressing human FPRL1, undigested; for Designation and FPRL1 Activity: SHAAGtide and truncated/other variants. The method, then: (§1) Receptor signaling assay. For individual measurements, cells were loaded for 45 min at room temperature with 2 μM indo-1/AM (Invitrogen, Carlsbad Calif.) in culture medium, then washed with 10 ml PBS and resuspended at 10^6 cells/ml in HBSS containing 0.1% BSA. Cytosolic calcium levels were determined using a Photon Technology International fluorimeter (excitation at 350 nm, ratio of dual emission at 400 and 490 nm). For measuring calcium dose responses, cells were analyzed with a Fluorometric Imaging Plate Reader 384 (FLIPR^384) (Molecular Devices, Sunnyvale, Calif.). Cells were loaded for 1 hr at 37° C. with 5 μM fluo-4 in HBSS with 0.1% BSA, then washed, transferred to black-wall 96-well plates, and subsequently excited at 505 nm with emission recorded at 530 nm with a standard protocol provided by the manufacture. Cells were stimulated with agonists 20 s after the monitoring of fluorescence began. Data were analyzed and plotted in arbitrary units of fluorescence using Prism. To ensure that responses were specific to FPRL1, we utilized a selective small-molecule antagonist of human FPRL1, generated by ChemoCentryx, which was optimized from a high throughput compound library screening approach.
Since FPRL1 has been reported to interact with low affinity and/or potency with a spectrum of potential pathogenic ligands of viral, bacterial and endogenous origin, we performed comparative functional analyses to determine the precise functional domain for the SHAAGtide (FIG. 14). SHAAGtides containing N-terminal and C-terminal truncations and extensions were synthesized, and potencies for receptor signaling in L1.2-FPRL1 cells were tested. […] After removal of the N-terminal amino acid (Met) from SHAAGtide, its potency is reduced approximately 10 fold. Removal of the first two N-terminal amino acids (Met-Leu) totally abolished SHAAGtide's activity on FPRL1. Conversely, removal of the C-terminal three amino residues (AAG) from SHAAGtide had no effect on its activity on FPRL1. Removal of the C-terminal six residues (LSHAAG) reduced the peptide's potency only 3-fold. Many other purported naturally-occurring FPRL1 ligands, including serum amyloid A (SAA), beta-amyloid protein 42, lipoxin A4 and the bacterial tripeptide fMLP were tested.
(Calcium flux is commonly read through the fluorescence of an indicator in the cells.)

For assay [2], the system named is human neutrophils. Kind of assay: Calcium mobilization in freshly isolated human neutrophils. The format is cell-based. The method, then: (§2) Calcium Mobilization Assay. Cells were loaded for 1 hour with 2 μM indo-1/AM dye (Molecular Probes, Eugene, Oreg.) in culture medium, then washed with 10 ml PBS and resuspended at 10^6/ml in HBSS containing 1% FBS. Cytosolic calcium responses were determined using a Photon Technology International (Lawrenceville, N.J.) fluorimeter, with excitation at 350 nm and dual emission at 400 and 490 nm. Alternatively, cells were loaded with 5 μg/ml Fluo-4 AM dye (Molecular Probes, Eugene, Oreg.), then washed and analyzed on a Fluorometric Imaging Plate Reader 384 (FLIPR^384 Molecular Devices, Sunnyvale, Calif.), with 505 nm excitation and 530 nm emission.
as §1

Assay [3] relates to THP-1 cells. Kind of assay: THP-1 chemotaxis assay. The format is cell-based, human. The conditions noted are these: for EC50: THP-1 cells. The method, then: Chemotaxis assay. L1.2-CCR1 transfectants, THP-1 cells, human monocytes and human neutrophils were collected by centrifugation and resuspended in HBSS containing 0.1% BSA. Chemotaxis assays were performed in 96-well ChemoTx® microplates (Neuroprobe, Rockville, Md.) as follows. Chemokines were added to the lower wells (final volume 29 μL), and 20 μL of cell suspension (5×10^6 cells/mL) was added to the polycarbonate filter (3 μm pore size for neutrophils, 5 μm for other 3 cell types). After incubation at 37° C. in the presence of 5% CO2 for 1 hr (neutrophils), 90 min (monocytes) or 2 h (THP-1 and L1.2-CCR1), cells were removed from the upper surface of the filter by scraping. Cells that migrated into the lower chamber were quantified by using the CyQuant cell proliferation assay kit (Molecular Probes, Eugene, Oreg.) and analyzed with a Tecan (Durham, N.C.) fluorimeter (excitation at 480 nm, emission at 530 nm). Data were analyzed and plotted in arbitrary units of fluorescence using Prism (GraphPad Software, San Diego, Calif.).

For assay [4], the system named is human monocytes. In words: Calcium mobilization in freshly isolated human monocytes. Format: cell-based. Particulars: undigested chemokine or peptide, 100 nM (CCL23β up to 250 nM). The method, then: as §2, §1
Assay [5] concerns the target T2, CCR1 (Homo sapiens, UniProt P32246).
T2 sequence (P32246 1-355): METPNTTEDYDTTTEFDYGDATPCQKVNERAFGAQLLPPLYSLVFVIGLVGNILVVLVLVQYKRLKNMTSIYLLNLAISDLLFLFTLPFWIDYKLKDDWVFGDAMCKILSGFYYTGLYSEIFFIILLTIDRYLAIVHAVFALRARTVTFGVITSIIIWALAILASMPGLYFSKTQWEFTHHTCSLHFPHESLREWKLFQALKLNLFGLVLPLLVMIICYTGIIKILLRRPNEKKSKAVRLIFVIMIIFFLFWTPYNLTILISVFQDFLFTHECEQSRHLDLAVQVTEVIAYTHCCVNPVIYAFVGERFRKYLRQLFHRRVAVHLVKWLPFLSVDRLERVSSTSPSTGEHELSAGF
In words: Competition binding with 125I-MIP-1α on human monocytes. Also noted: endogenous in cells; host or cells: human CD14+ monocytes from buffy coats. The method, then:
Binding assay. Competition binding studies were conducted using monocytes, L1.2-CCR1 or L1.2-FPRL1 cells. Cells were incubated for 3 hr at 4° C. with ^125I-MIP-1α (final concentration ˜0.05 nM) or ^125I-WKYMVm (final concentration ˜0.01 nM) in buffer (25 mM HEPES, 140 mM NaCl, 1 mM CaCl2, 5 mM MgCl2 and 0.2% BSA, adjusted to pH 7.1) in the presence of increasing amounts of unlabeled chemokine. Reactions were aspirated onto PEI-treated GF/B glass filters using a cell harvester (Packard). Filters were washed twice (25 mM HEPES, 500 mM NaCl, 1 mM CaCl2, 5 mM MgCl2, adjusted to pH 7.1). Scintillant (MicroScint-10; 35 μl) was added to the filters and counted in a Packard Topcount scintillation counter. Data were analyzed and plotted using Prism (GraphPad Software, San Diego, Calif.).

In assay [6] the target is T2, CCR1. In words: Calcium mobilization in murine L1.2 cells expressing human CCR1. Format: cell-based. Details: expressed in transfected cells; host or cells: murine L1.2 cells (G-418 selected transfectant). Particulars: L1.2-CCR1 cells. The method, then:
as §2, §1

Setting [7] is: undigested chemokine or peptide (100 nM).
[8] abbreviates: chemokine after digestion with PMN sup #1, read-out: EC50, chemotaxis.
Where [9] appears, read: chemokine after digestion with chymase, read-out: EC50, chemotaxis.
[10] abbreviates: 10 nM input chemokine, after digestion with proteases and fluids.
The mark [11] stands for this setting: 10 nM, undigested or recombinant chemokine.

For “1-42 substrate peptide: synthetic 42-residue peptide consisting of the CCL23β N-terminal (1-24) and SHAAGtide (25-42) domains (MKVSVAALSCLMLVTALGSQARVTKDAETEFMMSKLPLENPV)”, the “calcium mobilization in the FPRL1 transfectant” value in assay [1] is reported as “unable to induce calcium mobilization”.
Consider “CCL5/RANTES: traditional CCR1 ligand chemokine”, for which, in assay [2] (setting [7]), the calcium mobilization entry is “not”. For the same molecule, the EC50 in assay [3] (2 hr, recombinant undigested chemokine, read-out: EC50, chemotaxis) was found to be 0.5 nM.
Regarding IGPQMTLSHAAG [CCXP4], in assay [1], the “Designation and FPRL1 Activity” value is reported as “Low activity”.
On the same count and under the same terms, next, LWRRKIGPQMTLSH [CCXP11]: “Moderate”; MLWRRKIGPQM [CCXP8]: “Moderate”; MLWRRKIGPQMT [CCXP5]: “Moderate”.
For the molecule MLWRRKIGPQMTLSH [CCXP3], the “Designation and FPRL1 Activity” value in assay [1] was “High activity”.
Take MLWRRKIGPQMTLSHAAY [CCXP6]: the “Designation and FPRL1 Activity” value in assay [1] is reported as “High activity”.
As to RRKIGPQMTLSHAAG [CCXP2], the “Designation and FPRL1 Activity” value in assay [1] was “Low activity”.
On the same count and under the same terms, next, WRRKIG [CCXP10]: “Low activity”.
Regarding WRRKIGPQM [CCXP9], the “Designation and FPRL1 Activity” value in assay [1] is recorded as “Low activity”.
As for WRRKIGPQMTLSHAAG [CCXP7], the “Designation and FPRL1 Activity” value in assay [1] is on record as “Low activity”.

B1: CCL23β: alternatively spliced form of CCL23, 116-residue protein; recombinant, R&D Systems special order (protein, listed as Homo sapiens)
chain: MKVSVAALSCLMLVTALGSQARVTKDAETEFMMSKLPLENPVLLDMLWRRKIGPQMTLSHAAGFHATSADCCISYTPRSIPCSLLESYFETNSECSKPGVIFLTKKGRRFCANPSDKQVQVCMRMLKLDTRIKTRKN
For B1, the calcium mobilization entry in assay [4] is on record as “very weak responses”. Also, the “inhibition of 125I-MIP-1α binding” value in assay [5] is on record as “lowest binding activity”. Further, the “calcium mobilization in the FPRL1 transfectant” value in assay [1] is given as “unable to induce calcium mobilization”.

B2: CCL3/MIP-1α: traditional CCR1 ligand chemokine; unlabelled homologous competitor in binding (protein)
chain: ADTPTACCFSYTSRQIPQNFIADYFETSSQCSKPGVIFLTKRSRQVCADPSEEWVQKYVSDLELSA
B2: the calcium mobilization result in assay [2] (setting [7]) was “not and only moderate calcium responses”.

B3: CCL23/CKβ8: recombinant full-length human chemokine CCL23 (22-120), 99-residue protein (protein, listed as Homo sapiens)
chain: RVTKDAETEFMMSKLPLENPVLLDRFHATSADCCISYTPRSIPCSLLESYFETNSECSKPGVIFLTKKGRRFCANPSDKQVQVCMRMLKLDTRIKTRKN
On to B3, for which the EC50 in assay [3] (setting [8]) came out at 0.15 nM; in assay [3] (setting [9]), 0.05 nM; in assay [3] (chemokine after digestion with synovial fluid, read-out: EC50, chemotaxis), 0.25 nM. Besides, the “fold decrease of EC50 by chymase” value in assay [3] (THP-1 chemotaxis) was found to be 50 fold. Also, the results for the calcium mobilization entry in assay [6] (setting [10]), in assay [6] (setting [11]) and in assay [4] were “uniformly active”, “either not active or weakly active” and “strong calcium responses”, respectively. Moreover, the “inhibition of 125I-MIP-1α binding” value in assay [5] was “moderate competitors”.

B4: CCL15/MIP-1δ: recombinant full-length human chemokine CCL15 (92aa) (protein, listed as Homo sapiens)
chain: QFINDAETELMMSKLPLENPVVLNSFHFAADCCTSYISQSIPCSLMKSYFETSSECSKPGVIFLTKKGRQVCAKPSGPGVQDCMKKLKPYSI
With B4, the figures for the calcium mobilization result in assay [2] (digestions at 30-50 nM), in assay [6] (setting [10]) and in assay [6] (setting [11]) were “induced calcium mobilization”, “greater amount of calcium” and “little calcium mobilization”, respectively. Besides, the “fold increase in chemokine potency after cleavage” value in assay [3] (THP-1 cell migration, cleavage by chymase or synovial fluid) is listed as “approximately 1000 fold”. Further, the EC50 in assay [3] (after cleavage by chymase or synovial fluid, read-out: EC50, cell migration) was 0.05 to 0.06 nM; in assay [3] (setting [8]), 0.25 nM; in assay [3] (setting [9]) it was 0.05 nM.

B5: CCL15Δ24/LKN-1: recombinant CCL15/MIP-1δ lacking the N-terminal 24 residues (68aa) (protein)
chain: SFHFAADCCTSYISQSIPCSLMKSYFETSSECSKPGVIFLTKKGRQVCAKPSGPGVQDCMKKLKPYSI
On to B5, for which the calcium mobilization entry in assay [2] (setting [7]) is listed as “respond”; in assay [2] (undigested chemokine or peptide (100 nM), listed as CCL15 Δ24/leukotactin), “only moderate calcium responses”; in assay [6] (setting [11]), “substantially greater response”.
